This is an account of results in patent US20250215412A1 (NOVOZYMES A S, published 2025).

Changes are numbered by the printed parent chain. Names and notes keep the numbering of the source.

Common to all, as to assay: cell-based or functional assay
Experiment [1] has as its target Chryseobacterium culicis deamidase polypeptide, wildtype, with His-tag (Chryseobacterium culicis).
For experiment [2], the target named is T1, Chryseobacterium proteolyticum deamidase polypeptide, wildtype, with His-tag (Chryseobacterium proteolyticum) (UniProt Q9AQQ8).
T1 sequence: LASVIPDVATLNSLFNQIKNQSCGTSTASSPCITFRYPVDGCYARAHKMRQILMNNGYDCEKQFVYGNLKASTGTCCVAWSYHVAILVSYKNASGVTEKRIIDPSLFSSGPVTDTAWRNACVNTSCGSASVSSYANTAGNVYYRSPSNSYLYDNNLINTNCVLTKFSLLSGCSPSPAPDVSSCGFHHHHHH

For experiment [3], the target named is T2, Chryseobacterium defluvii deamidase polypeptide, wildtype, with His-tag (Chryseobacterium defluvii).
T2 sequence: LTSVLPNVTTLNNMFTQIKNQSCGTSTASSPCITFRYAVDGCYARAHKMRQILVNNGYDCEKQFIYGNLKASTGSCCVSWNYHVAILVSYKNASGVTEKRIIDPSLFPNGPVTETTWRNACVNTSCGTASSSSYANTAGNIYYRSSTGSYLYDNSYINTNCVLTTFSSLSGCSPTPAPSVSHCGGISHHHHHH

In experiment [4] the target is T3, Chryseobacterium gambrini deamidase polypeptide, wildtype, with His-tag (Chryseobacterium gambrini).
T3 sequence: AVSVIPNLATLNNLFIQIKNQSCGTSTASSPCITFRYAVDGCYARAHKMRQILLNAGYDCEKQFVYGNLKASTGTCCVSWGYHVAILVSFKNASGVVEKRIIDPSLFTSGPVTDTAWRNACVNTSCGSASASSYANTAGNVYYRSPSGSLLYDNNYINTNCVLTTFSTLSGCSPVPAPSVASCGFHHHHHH

Experiment [5] addresses T4, Chryseobacterium sp-62563 deamidase polypeptide (second polypeptide, deamidase domain), wildtype (Chryseobacterium sp-62563).
T4 sequence: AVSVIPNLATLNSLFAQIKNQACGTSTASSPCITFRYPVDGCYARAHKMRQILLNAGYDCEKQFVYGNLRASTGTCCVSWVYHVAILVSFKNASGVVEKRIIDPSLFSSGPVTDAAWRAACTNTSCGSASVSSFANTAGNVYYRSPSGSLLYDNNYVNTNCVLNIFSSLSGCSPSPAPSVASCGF

Experiment [6] has as its target T5, Chryseobacterium sp-62563 deamidase C169S (Chryseobacterium sp-62563).
T5 sequence: T4 sequence with C60S

Experiment [7] concerns the target T6, Chryseobacterium sp-62563 deamidase C230H (Chryseobacterium sp-62563).
T6 sequence: T4 sequence with C121H

In experiment [1], “Chryseobacterium culicis propeptide F38C” came in with a NanoDSF thermal unfolding temperature of 79.5 ° C.

The molecule “Chryseobacterium culicis propeptide Y94P” gave a NanoDSF thermal unfolding temperature in experiment [1] of 82.3 ° C. In experiment [1], “Chryseobacterium culicis propeptide F99K + N100T + E103V + R104K + G105E + D106E + S107N + K108R” registered a Leakage activity of 3%.

B1: Chryseobacterium proteolyticum propeptide L100A (protein)
chain: NQEINGKEKLSVNDSKLKDFGKTVPVGIDEENGMIKVSFMLTAQFYEIKPTKENEQYIGMLRQAVKNESPVHIFLKPNSNEIGKVESASPEDVRYFKTIATKEVKEENRK
The molecule B1 gave a NanoDSF thermal unfolding temperature in experiment [2] of 80 ° C.

B2: Chryseobacterium proteolyticum propeptide L100G (protein)
chain: B1 chain with A100G
B2 displayed a NanoDSF thermal unfolding temperature in experiment [2] of 77.3 ° C.

B3: Chryseobacterium defluvii propeptide Y47T (protein)
chain: ATNQDVVGKENTSNHVAARDFGKTVPVGINEENGTLKVSFILSAQFTEIKPSKENEEYISLIRQAIQNESPIHVFMKLNSNEIVKVEKGTEEDVKYFRSILTKEVKEENRK
As to B3, in experiment [3], the NanoDSF thermal unfolding temperature worked out at 80.4 ° C.

B4: Chryseobacterium defluvii propeptide L101K (protein)
chain: B3 chain with T47Y, L101K
B4 displayed a NanoDSF thermal unfolding temperature in experiment [3] of 80.5 ° C.

B5: Chryseobacterium defluvii propeptide L101G (protein)
chain: B3 chain with T47Y, L101G
For the molecule B5, the NanoDSF thermal unfolding temperature in experiment [3] came out at 79.8 ° C.

B6: Chryseobacterium defluvii propeptide L101A (protein)
chain: B3 chain with T47Y, L101A
B6: the NanoDSF thermal unfolding temperature in experiment [3] stood at 82 ° C.

B7: Chryseobacterium gambrini propeptide I23S (protein)
chain: NQDPNLVVKENNENAMRDFGSTSPVGIQKEGNVLKVSFIISAQFYEIKDSKENEAFISMIKSAIENETPVHVFLKKNSNEIAKVEKATDEDVTYFKSIFTKEVKEENRK
B7 had a NanoDSF thermal unfolding temperature in experiment [4] of 77.2 ° C.

B8: Chryseobacterium gambrini propeptide F99K (protein)
chain: B7 chain with S23I, F99K
The molecule B8 showed a NanoDSF thermal unfolding temperature in experiment [4] of 78.4 ° C.

B9: Chryseobacterium gambrini propeptide Y45T (protein)
chain: B7 chain with S23I, Y45T
Regarding B9, the NanoDSF thermal unfolding temperature in experiment [4] came to 79.3 ° C.

B10: Chryseobacterium gambrini propeptide F99A (protein)
chain: B7 chain with S23I, F99A
Regarding B10, in experiment [4], the NanoDSF thermal unfolding temperature came to 70.4 ° C.

B11: Chryseobacterium gambrini propeptide F38C (protein)
chain: B7 chain with S23I, F38C
For the molecule B11, the NanoDSF thermal unfolding temperature in experiment [4] stood at 82.3 ° C.

B12: Chryseobacterium gambrini propeptide Y94P (protein)
chain: B7 chain with S23I, Y94P
In experiment [4], B12 came in with a NanoDSF thermal unfolding temperature of 81.1 ° C.

B13: Chryseobacterium gambrini propeptide F99G (protein)
chain: B7 chain with S23I, F99G
In turn, B13 registered a NanoDSF thermal unfolding temperature in experiment [4] of 69.3 ° C.

B14: Chryseobacterium sp-62563 propeptide F99G (protein)
chain: NQDPNLVAKESNETAMKDFGKTVPVGIEKEDGKFKISFMVTAQPYEIKDSKENAAYISMIKTAVENETPIHVFLKANTNEIAKVDKATDDDIRYFKSVGTKEVKEENRK
In experiment [5], B14 yielded a Leakage activity of 9%, a NanoDSF thermal unfolding temperature of 74.1 ° C and a Relative activity of maturated deamidase (% initial rate) of over 100. Moreover, in experiment [6], the Leakage activity stood at 3% and the Relative activity of maturated deamidase (% initial rate) was over 100. The molecule further yielded a Leakage activity in experiment [7] of 0%.

B15: Chryseobacterium sp-62563 propeptide K101A (protein)
chain: B14 chain with G99F, K101A
On to B15, for which, in experiment [5], the Relative activity of maturated deamidase (% initial rate) came out at 36.

B16: Chryseobacterium sp-62563 propeptide K101D (protein)
chain: B14 chain with G99F, K101D
The molecule B16 registered a Relative activity of maturated deamidase (% initial rate) in experiment [5] of 46.

B17: Chryseobacterium sp-62563 propeptide G20D (protein)
chain: B14 chain with G20D, G99F
Take B17: the Leakage activity in experiment [5] was 0%.

B18: Chryseobacterium sp-62563 propeptide T14P (protein)
chain: B14 chain with T14P, G99F
Take B18: the Leakage activity in experiment [5] is 0%.

B19: Chryseobacterium sp-62563 propeptide K101E (protein)
chain: B14 chain with G99F, K101E
On to B19, for which, in experiment [5], the Relative activity of maturated deamidase (% initial rate) came out at 45.

B20: Chryseobacterium sp-62563 propeptide R108N (protein)
chain: B14 chain with G99F, R108N
B20 showed a Leakage activity in experiment [5] of 0%.

B21: Chryseobacterium sp-62563 propeptide K101N (protein)
chain: B14 chain with G99F, K101N
In experiment [5], B21 yielded a Relative activity of maturated deamidase (% initial rate) of 29.

B22: Chryseobacterium sp-62563 propeptide K101L (protein)
chain: B14 chain with G99F, K101L
B22 yielded a Relative activity of maturated deamidase (% initial rate) in experiment [5] of 41.

B23: Chryseobacterium sp-62563 propeptide K101P (protein)
chain: B14 chain with G99F, K101P
In turn, B23 returned a Relative activity of maturated deamidase (% initial rate) in experiment [5] of 36.

B24: Chryseobacterium sp-62563 propeptide K101G (protein)
chain: B14 chain with G99F, K101G
As to B24, the Relative activity of maturated deamidase (% initial rate) in experiment [5] worked out at 34.

B25: Chryseobacterium sp-62563 propeptide T100E (protein)
chain: B14 chain with G99F, T100E
B25 yielded a Relative activity of maturated deamidase (% initial rate) in experiment [5] of 75.

B26: Chryseobacterium sp-62563 propeptide K101S (protein)
chain: B14 chain with G99F, K101S
Molecule B26 showed a Relative activity of maturated deamidase (% initial rate) in experiment [5] of 29.

B27: Chryseobacterium sp-62563 propeptide K101C (protein)
chain: B14 chain with G99F, K101C
B27: the Relative activity of maturated deamidase (% initial rate) in experiment [5] is 38.

B28: Chryseobacterium sp-62563 propeptide E10P (protein)
chain: B14 chain with E10P, G99F
Regarding B28, the Leakage activity in experiment [5] amounted to 0%.

B29: Chryseobacterium sp-62563 propeptide K101Y (protein)
chain: B14 chain with G99F, K101Y
B29 showed a Relative activity of maturated deamidase (% initial rate) in experiment [5] of 46.

B30: Chryseobacterium sp-62563 propeptide T100Q (protein)
chain: B14 chain with G99F, T100Q
On to B30, for which, in experiment [5], the Relative activity of maturated deamidase (% initial rate) is 79.

B31: Chryseobacterium sp-62563 propeptide K101M (protein)
chain: B14 chain with G99F, K101M
For B31, the Relative activity of maturated deamidase (% initial rate) in experiment [5] amounted to 29.

B32: Chryseobacterium sp-62563 propeptide E13C (protein)
chain: B14 chain with E13C, G99F
Molecule B32 showed a Leakage activity in experiment [5] of 0%.

B33: Chryseobacterium sp-62563 propeptide K101W (protein)
chain: B14 chain with G99F, K101W
Consider B33, for which, in experiment [5], the Relative activity of maturated deamidase (% initial rate) was 54.

B34: Chryseobacterium sp-62563 propeptide K101I (protein)
chain: B14 chain with G99F, K101I
In turn, B34 returned a Relative activity of maturated deamidase (% initial rate) in experiment [5] of 38.

B35: Chryseobacterium sp-62563 propeptide K109C (protein)
chain: B14 chain with G99F, K109C
In the case of B35, the Leakage activity in experiment [5] is 0%.
